In article PMC5539292, “Calcium Ion Induced Structural Changes Promote Dimerization of Secretagogin, Which Is Required for Its Insulin Secretory Function” (Scientific Reports, 2017):

Legend:
[1] = molecular target: recombinant human secretagogin (hSCGN) wild type (human) (UniProt O76038); experiment: SEC; 450 µg protein on Superdex 200 HR 10/30 in PBS, 0.5 mL/min; samples pretreated with EGTA and DTT, then treated with Ca^2+ and H2O2
[2] = molecular target: the molecule itself; experiment: non-reducing SDS-PAGE of disulfide-linked dimers; recombinant protein incubated with 0 or 2 mM CaCl2 at R.T. for 15 min, then H2O2 at 37°C for 1 h; Coomassie blue staining

In the case of “recombinant human secretagogin (hSCGN) wild type (from UniProt O76038 1-276) (natural protein)”, the stoichiometry N [1] is reported as 2.

B1: purified hSCGN ΔEF1 (deletion of 1-52 a.a.) (domain or fragment, human, UniProt O76038 53-276, looked up)
chain: TVMKANLHKVKQQFMTTQDASKDGRIRMKELAGMFLSEDENFLLLFRRENPLDSSVEFMQIWRKYDADSSGFISAAELRNFLRDLFLHHKKAISEAKLEEYTGTMMKIFDRNKDGRLDLNDLARILALQENFLLQFKMDACSTEERKRDFEKIFAYYDVSKTGALEGPEVDGFVKDMMELVQPSISGVDLDKFREILLRHCDVNKDGKIQKSELALCLGLKINP
notes: human secretagogin (SCGN) without residues 1-52 (EF1); The methods describe ΔEF1 only as a pcDNA3.1 construct; also called ΔEF1 protein; recombinant ΔEF1; source: purified recombinant protein
B1: binds [2].
